Laboratory results reported in publication PMC10397247.
Where two headings read alike, the source gives them in different places.

Legend:
P2-AA-12HAA-D = target: T1, P2-AA-12HAA-D; experiment: two-hybrid library CCmax; details: mean of both orientations;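 also: natural log of median RNA to DNA barcode read ratio; higher means stronger binding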
T1 chain: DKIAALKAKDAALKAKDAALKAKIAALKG

P2-AA-12HAA-E = target: T2, P2-AA-12HAA-E; experiment: two-hybrid library CCmax;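 also: natural log of median RNA to DNA barcode read ratio; higher means stronger binding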
T2 chain: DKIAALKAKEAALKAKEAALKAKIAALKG

P2-AA-12HAA-H = target: T3, P2-AA-12HAA-H; experiment: two-hybrid library CCmax; details: mean of both orientations;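 also: natural log of median RNA to DNA barcode read ratio; higher means stronger binding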
T3 chain: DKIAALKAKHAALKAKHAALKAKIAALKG

P2-AA-12HAA-I = target: T4, P2-AA-12HAA-I; experiment: two-hybrid library CCmax; details: mean of both orientations;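 also: natural log of median RNA to DNA barcode read ratio; higher means stronger binding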
T4 chain: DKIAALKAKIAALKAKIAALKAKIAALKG

P2-AA-12HAA-K = target: T5, P2-AA-12HAA-K; experiment: two-hybrid library CCmax; details: mean of both orientations;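 also: natural log of median RNA to DNA barcode read ratio; higher means stronger binding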
T5 chain: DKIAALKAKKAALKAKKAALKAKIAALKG

P2-AA-12HAA-L = target: T6, P2-AA-12HAA-L; experiment: two-hybrid library CCmax;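 also: natural log of median RNA to DNA barcode read ratio; higher means stronger binding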
T6 chain: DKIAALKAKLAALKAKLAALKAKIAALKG

P2-AA-12HAA-R = target: T7, P2-AA-12HAA-R; experiment: two-hybrid library CCmax; details: mean of both orientations
T7 chain: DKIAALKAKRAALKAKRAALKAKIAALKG

P2-AA-12HAA-S = target: T8, P2-AA-12HAA-S; experiment: two-hybrid library CCmax; details: mean of both orientations
T8 chain: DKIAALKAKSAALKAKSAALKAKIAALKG

P2-AA-12HAA-T = target: T9, P2-AA-12HAA-T; experiment: two-hybrid library CCmax; details: mean of both orientations
T9 chain: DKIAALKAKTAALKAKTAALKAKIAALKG

P2-AA-12HAA-V = target: T10, P2-AA-12HAA-V; experiment: two-hybrid library CCmax; details: mean of both orientations
T10 chain: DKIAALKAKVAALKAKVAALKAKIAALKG

P2-AA-12HAA-Y = target: T11, P2-AA-12HAA-Y; experiment: two-hybrid library CCmax; details: mean of both orientations
T11 chain: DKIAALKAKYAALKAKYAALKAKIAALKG

P2-AA = target: T12, P2-AA; experiment: two-hybrid library CCmax; details: mean of both orientations
T12 chain: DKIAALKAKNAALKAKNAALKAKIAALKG

O5 = target: T13, O5; experiment: two-hybrid library CC0; details: mean of both orientations
T13 chain: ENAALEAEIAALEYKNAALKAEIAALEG

O6 = target: T14, O6; experiment: two-hybrid library CC0; details: mean of both orientations
T14 chain: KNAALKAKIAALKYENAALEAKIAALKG

O7 = target: T15, O7; experiment: two-hybrid library CC0; details: mean of both orientations
T15 chain: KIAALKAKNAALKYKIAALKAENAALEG

O8 = target: T16, O8; experiment: two-hybrid library CC0; details: mean of both orientations
T16 chain: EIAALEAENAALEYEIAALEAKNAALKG

O9 = target: T17, O9; experiment: two-hybrid library CC0; details: mean of both orientations
T17 chain: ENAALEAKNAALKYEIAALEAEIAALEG

P9bHq = target: T18, P9bHq; experiment: two-hybrid library CCNG1
T18 chain: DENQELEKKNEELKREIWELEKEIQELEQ

B1: P1-AA-12HAA-R (peptide)
chain: DEIAALEAERAALEAERAALEAEIAALEG
Q: For B1, which interaction score (P2-AA-12HAA-D) is on record?
A: The interaction score was -0.753.

Q: And the interaction score (P2-AA-12HAA-E; mean of both orientations)?
A: Its interaction score is 0.85.

Q: And the interaction score (P2-AA-12HAA-H)?
A: The interaction score was 0.326.

Q: What about the interaction score (P2-AA-12HAA-I) of the same binder?
A: The interaction score was 1.45.

Q: And the interaction score (P2-AA-12HAA-K)?
A: The interaction score was -0.626.

Q: And the interaction score (P2-AA-12HAA-L; mean of both orientations)?
A: Its interaction score is 1.95.

Q: And the interaction score (P2-AA-12HAA-R)?
A: Its interaction score is -1.34.

Q: And the interaction score (P2-AA-12HAA-S)?
A: The interaction score was 1.44.

Q: What about the interaction score (P2-AA-12HAA-T) of the same binder?
A: The interaction score was 0.243.

Q: What about the interaction score (P2-AA-12HAA-V) of the same binder?
A: The interaction score was 1.37.

Q: What about the interaction score (P2-AA-12HAA-Y) of the same binder?
A: Its interaction score is 0.106.

Q: And the interaction score (P2-AA)?
A: Its interaction score is 1.8.

B2: P1-AA-12HAA-A (peptide)
chain: DEIAALEAEAAALEAEAAALEAEIAALEG
Q: How did the interaction score (P2-AA-12HAA-D) turn out when B2 was run?
A: Its interaction score is -0.675.

Q: And the interaction score (P2-AA-12HAA-E; mean of both orientations)?
A: The interaction score was 0.947.

Q: What about the interaction score (P2-AA-12HAA-H) of the same binder?
A: The interaction score was 2.14.

Q: What about the interaction score (P2-AA-12HAA-I) of the same binder?
A: The interaction score was 1.82.

Q: And the interaction score (P2-AA-12HAA-K)?
A: The interaction score was 1.48.

Q: What about the interaction score (P2-AA-12HAA-L; mean of both orientations) of the same binder?
A: The interaction score was 1.84.

Q: What about the interaction score (P2-AA-12HAA-R) of the same binder?
A: The interaction score was 0.883.

Q: What about the interaction score (P2-AA-12HAA-S) of the same binder?
A: Its interaction score is 1.55.

Q: And the interaction score (P2-AA-12HAA-T)?
A: Its interaction score is 1.66.

Q: And the interaction score (P2-AA-12HAA-V)?
A: The interaction score was 1.9.

Q: What about the interaction score (P2-AA-12HAA-Y) of the same binder?
A: The interaction score was 2.

Q: What about the interaction score (P2-AA) of the same binder?
A: Its interaction score is 1.79.

B3: O5 (peptide)
chain: ENAALEAEIAALEYKNAALKAEIAALEG
Q: For B3, which interaction score (O5) is on record?
A: Its interaction score is -2.78.

Q: What about the interaction score (O6) of the same binder?
A: The interaction score was 1.41.

Q: What about the interaction score (O7) of the same binder?
A: Its interaction score is -2.67.

Q: And the interaction score (O8)?
A: The interaction score was -2.47.

Q: And the interaction score (O9)?
A: The interaction score was -2.73.

B4: P1-AA-12HAA-V (peptide)
chain: DEIAALEAEVAALEAEVAALEAEIAALEG
Q: What does the source list for B4?
A: interaction score (P2-AA-12HAA-D): 1.1; interaction score (P2-AA-12HAA-E): 1.83; interaction score (P2-AA-12HAA-H): 1.25; interaction score (P2-AA-12HAA-I): 1.82; interaction score (P2-AA-12HAA-K): 1.35; interaction score (P2-AA-12HAA-L): 1.78; interaction score (P2-AA-12HAA-R): 1.69; interaction score (P2-AA-12HAA-S): 1.44; interaction score (P2-AA-12HAA-T): 1.86; interaction score (P2-AA-12HAA-V): 2.21; interaction score (P2-AA-12HAA-Y): 1.8; interaction score (P2-AA): 2.1

B5: P9bHq (peptide)
chain: DENQELEKKNEELKREIWELEKEIQELEQ
Q: B5 was tested. Which interaction score (P9bHq) did it give?
A: The interaction score was -0.654.
